According to the nanobody polyreactivity screen of Harvey et al. (2022):

Experiment: yeast display, Sf9 membrane polyspecificity reagent, FACS + sequencing; frameworks hold sequencing errors
In short: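 Genes from sorted yeast were amplified by colony PCR, read by MiSeq 2 × 250 sequencing and filtered on CDR length. These cells carried a synthetic nanobody library in Saccharomyces cerevisiae BJ5465 and were sorted by FACS into low and high (top ~1%) gates on anti-HA and streptavidin fluorescence. Polyreactivity is labelled according to the gate of origin.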
In the case of “QVQLVESGGGLVQAGGSLRLTCAASGYIFGIYAMGWYRQAPGKERELVAAITTSSGSTYADSVKGRFTISRDNAKNTVYLQMNSLKPEDTAVYYCAADGYLYSYPGHRRASYDYWGQGTQVTVSS”, the “polyreactivity (PSR sort gate)” value is reported as “low polyreactivity”.
For “QVQLVESGGGLVQAGGSLRLTCAASGYTFAGNAMGWYRQAPGKERELVAALSRSGGRTYYADSVKGRFTISRDNAKTTVYLQMNSLKPEDTAVYYCAASYRYTEYVSTWGFGYWGQGTQVTVSS”, the “polyreactivity (PSR sort gate)” value was “high polyreactivity”.
With “QVQLVESGGGLVQAGGSLRLTCAASGYTFRRYAMGWYRQAPGKERELVAAITRDDSTNYADSVKGRFTISRDNGKNTVYLQMNSLKPEDTAVYYCAAAVGLRRYSPLHLLYYYWGQGTQVTVSS” the “polyreactivity (PSR sort gate)” value was “high polyreactivity”.
For “QVQLVESGGGLVQAGGSLRLTCAASRSIFYPNAMGWYRQAPGKETELVAAISSSGGTNYADSVKGRFTISRDNAQNTVYLQMNSLKPEDTAVYYCNARDKVRYRYSLMDYWGQGTQVTVSS”, the “polyreactivity (PSR sort gate)” value was “low polyreactivity”.
In the case of “QVQLVESGGGLVQAGGSLRLTCAASVSTFSRYAMGWYRQAPGKERELVAAISWRGGRTYYADSVKGRFTISRDNAKNTVYLQMNSLKPEDTAVYYCNAVSSFTSPRYDYWGQGTQVTVSS”, the “polyreactivity (PSR sort gate)” value is reported as “high polyreactivity”.
For “QVQLVESGGGLVQAGGSLRLTCAGSGRIFPFYAMGWYRHAPGKERELVAAISWNGGSTFYADSVKGRFTISRDNAKNTVYLQMNSLKPEDTAVYYCNADFRPAYTYDYWGQGTQVTVSS”, the “polyreactivity (PSR sort gate)” value was “low polyreactivity”.
For “QVQLVESGGGLVQAGGSLRLTCAPSGSTLLVYAMGWNRQAPGKERELVAAISGSGGRTSYADSVKGRFTISRDNAKNTVYLQMNSLKPEDTAVYYCAARRAGTYDYWGEGTQVTVSS”, the “polyreactivity (PSR sort gate)” value was “high polyreactivity”.
For “QVQLVESGGGLVQAGGSLRLTCDASGSSFIFNAMGWSRQAHGIEMELVAGITRRVDSTFYADSVKGRFTISRDNAKNTVYLQMTSLKPEDTGVFFFAARQYSGVKYNYWGQGTEVTVSS”, the “polyreactivity (PSR sort gate)” value was “high polyreactivity”.
With “QVQLVESGGGLVQAGGSLRLTCDASGSTFVNYAMGWYRQAPGKERELVAAITDSGGSTYYADSVKGRFTISRDNAKNTVYLQMNCLKPEDTAVYYCATEGYYYYTSYDYWGQGTQVTVSS” the “polyreactivity (PSR sort gate)” value was “low polyreactivity”.
In the case of “QVQLVESGGGLVQAGGSLRLTCSASGFIFRYYAKGWSRQAPGKERELVAAISTSGGSTYYADSVKGRFTISRDIAKNTVYLQMNSLKPEDTAVYYCAASTNTDRDFWGQGTQVTVSS”, the “polyreactivity (PSR sort gate)” value is reported as “high polyreactivity”.
For “QVQLVESGGGLVQAGGSLRLTWAASGSIFTYYTRGWYRQAPGKERELVATIRYTGGNTYYADSVKGRFTISRDNAKNTVYLQMNILKPEDTAVYYCATGYSYRNVPTFRWLYYWGQGTQVTVSS”, the “polyreactivity (PSR sort gate)” value was “low polyreactivity”.
With “QVQLVESGGGLVQAGGSLRVSCAASGFIFVRNTMVWYRQAPGKERELVAGIRYSGGSTYYADSVKGRFTISRDNAKNTVFLQMNSQKTEDTAVYYCAARSHRRLMYYWGQGTQVNVSS” the “polyreactivity (PSR sort gate)” value was “high polyreactivity”.
For “QVQLVESGGGLVQAGGSLRVSCAASGFTFPWYAMGWYRPAPGKERELVASISYRGDSTYYADSVKGRFTISRDNAKITVYLQMNSLKPEDTSVYYCNKRLDSYYLPGFDYWGQGTQVTVSS”, the “polyreactivity (PSR sort gate)” value was “low polyreactivity”.
For “QVQLVESGGGLVQAGGSLRVSCAASGFTLQRNTMGWYRQAPGKEREFVAAISVRGGSTYYADSVKGRFTISRDNAQNTVYLQMNSLKPEDTAVYYCAAVGRPTQYSYPYGYWGQGTQVTVSS”, the “polyreactivity (PSR sort gate)” value was “high polyreactivity”.
For “QVQLVESGGGLVQAGGSLRVSCAASGIIFNRYAMGWSREAPGKERELVAAITSSGGSTHYADSVKGRFTISRDNAKNTVYLQMNSLKPEDTAVYYCAKQFPYNYRYYLHYYYWGQGTQVTVSS”, the “polyreactivity (PSR sort gate)” value was “low polyreactivity”.
With “QVQLVESGGGLVQAGGSLRVSCAASGIIFRYNAMGWSRQAPGKESELVAAITSGGITKYADSVKGRFTISRDNAKNTVYLQMNSLKPEDTAVYYCNAEYGFDRAGSRGEYWGQCTQVTVSS” the “polyreactivity (PSR sort gate)” value was “low polyreactivity”.
